Laboratory results from patent US20230192842A1 (published 2023).

What was measured:
Experiment in all cases: flow cytometry, 906-mAb-PE on RKO KO cells expressing the mutant
[1] = biological target: human CLDN3 P152A mutant on RKO KO cells (human) (UniProt O15551)
[2] = biological target: human CLDN3 Q155A mutant on RKO KO cells (human) (UniProt O15551)
[3] = biological target: human CLDN3 Q43A mutant on RKO KO cells (human) (UniProt O15551)
[4] = biological target: human CLDN3 I39A mutant on RKO KO cells (human) (UniProt O15551)
human CLDN3 I39A mutant on RKO KO cells (human), sequence (O15551 whole entry I39A): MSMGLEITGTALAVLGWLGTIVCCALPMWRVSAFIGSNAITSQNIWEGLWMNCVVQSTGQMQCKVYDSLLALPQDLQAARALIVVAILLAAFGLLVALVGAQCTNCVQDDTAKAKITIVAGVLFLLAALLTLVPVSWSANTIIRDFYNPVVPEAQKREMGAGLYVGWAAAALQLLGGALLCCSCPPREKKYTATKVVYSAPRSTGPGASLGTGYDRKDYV

[5] = biological target: human CLDN3 F34A mutant on RKO KO cells (human) (UniProt O15551)
human CLDN3 F34A mutant on RKO KO cells (human), sequence (O15551 whole entry F34A): as the sequence (O15551 whole entry I39A) above, with F34A, A39I counted along it

[6] = biological target: human CLDN3 N148A mutant on RKO KO cells (human) (UniProt O15551)
human CLDN3 N148A mutant on RKO KO cells (human), sequence (O15551 whole entry N148A): as the sequence (O15551 whole entry I39A) above, with A39I, N148A counted along it

[7] = biological target: human CLDN3 K156A mutant on RKO KO cells (human) (UniProt O15551)
human CLDN3 K156A mutant on RKO KO cells (human), sequence (O15551 whole entry K156A): as the sequence (O15551 whole entry I39A) above, with A39I, K156A counted along it

[8] = biological target: human CLDN3 S42A mutant on RKO KO cells (human) (UniProt O15551)
human CLDN3 S42A mutant on RKO KO cells (human), sequence (O15551 whole entry S42A): as the sequence (O15551 whole entry I39A) above, with A39I, S42A counted along it

[9] = biological target: human CLDN3 I45A mutant on RKO KO cells (human) (UniProt O15551)
human CLDN3 I45A mutant on RKO KO cells (human), sequence (O15551 whole entry I45A): as the sequence (O15551 whole entry I39A) above, with A39I, I45A counted along it

[10] = biological target: human CLDN3 P149A mutant on RKO KO cells (human) (UniProt O15551)
human CLDN3 P149A mutant on RKO KO cells (human), sequence (O15551 whole entry P149A): as the sequence (O15551 whole entry I39A) above, with A39I, P149A counted along it

human CLDN3 Q155A mutant on RKO KO cells (human), sequence (O15551 whole entry Q155A): as the sequence (O15551 whole entry I39A) above, with A39I, Q155A counted along it
human CLDN3 P152A mutant on RKO KO cells (human), sequence (O15551 whole entry P152A): as the sequence (O15551 whole entry I39A) above, with A39I, P152A counted along it
human CLDN3 Q43A mutant on RKO KO cells (human), sequence (O15551 whole entry Q43A): as the sequence (O15551 whole entry I39A) above, with A39I, Q43A counted along it

fold change MFI vs CLDN3 WT (fold vs CLDN3 WT) [1]: 5.07 | fold change MFI vs CLDN3 WT (fold vs CLDN3 WT) [2]: 3.4 | fold change MFI vs CLDN3 WT (fold vs CLDN3 WT) [3]: 2.68 | fold change MFI vs CLDN3 WT (fold vs CLDN3 WT) [4]: 0.95 | fold change MFI vs CLDN3 WT (fold vs CLDN3 WT) [5]: 0.4 | fold change MFI vs CLDN3 WT (fold vs CLDN3 WT) [6]: 2.75 | fold change MFI vs CLDN3 WT (fold vs CLDN3 WT) [7]: 0.73 | fold change MFI vs CLDN3 WT (fold vs CLDN3 WT) [8]: 3.91 | fold change MFI vs CLDN3 WT (fold vs CLDN3 WT) [9]: 3.17 | fold change MFI vs CLDN3 WT (fold vs CLDN3 WT) [10]: 2.03
B1: 906-mAb (anti-CLDN3 906-mAb, monoclonal antibody version of the scFv of 906-009_LNGFR) (antibody, V domains shown)
VH: QVQLVQSGAEVKKPGSSVKVSCKASGYTFTNYWVHWVRQAPGQGLEWMGRIEPNSSGSQYNEKFKNRVTITADKSTSTAYMELSSLRSEDTAVYYCARGVMVPLDYWGQGTLVTVSS
VL: DIQMTQSPSSLSASVGDRVTITCKASQDINRYIAWYQQKPGKAPKLLIHYTSTLQPGVPSRFSGSGSGTDFTLTISSLQPEDFATYYCLQYETLYSFGQGTKLEIK
